Reference: patent US20240100133A1, “ENZYMATICALLY INACTIVE GRANZYME A AND USES THEREFORE” (Saint Louis University, priority 2022, published 2024)

Assays:
[1] = tested on: mycobacteria within iMac TLR4KO cells; test: MGIA in iMac TLR4KO cells; format: cell-based, mouse
[2] = tested on: Protein Disulfide Isomerase A1 (PDIA1); settings: human monocytes infected and treated with GzmA; cited from earlier work
[3] = tested on: BCG-GFP in human monocytes; test: BCG-GFP protection experiments and kinetics by flow cytometry
Protocol: Following treatment with GzmA and infection with mycobacteria, monocytes were first blocked with True Stain Fc blocker (Cat. #426101, Biolegend, San Diego, CA), and then permeabilized using permeabilization solution (Cat. #554715, BD Biosciences, San Diego, CA). Next, cells were incubated with anti-GzmA antibody conjugated with PE (Cat. #558904, BD Biosciences, San Diego, CA). A flow cytometer was then used to analyze BCG-GFP and GzmA-PE positive cells. FlowJo software was used for analysis.

[4] = tested on: mycobacteria within iMac-WT mouse cells; format: cell-based; settings: human GzmA on mouse iMac-WT cells
Rab11-FIP1 = test: Quantitative shotgun proteomics of treated and infected monocytes; format: cell-based, human; settings: 200 nM GzmA, infected cells (MOI=3), overnight
Protocol: Quantitative shotgun proteomics. 1.5e5 human monocytes were either treated or not with 200 nM GzmA, and infected or not with mycobacteria (MOI=3) overnight. After incubation, cells were then washed thrice with PBS, and the pellet lysed using lysis buffer from EasyPep Mini MS Sample Prep Kit (Cat #A40006, Thermo-Fisher, Waltham, MA) supplemented with 1:100 HALT phosphatase inhibitor (Cat #78420, Thermo-Fisher, Waltham, MA). Lysis, reduction/alkylation, protein digestion, and peptide clean-up were performed according to EasyPep recommendations. […] After peptide cleanup, samples were dried using a vacuum centrifuge, and then resuspended in 0.1% formic acid in water for LC-MS analysis. The samples were analyzed on a Q-Exactive orbitrap MS/MS equipped with a nanospray emitter (Thermo Fisher Scientific, Waltham, MA). Nanospray parameters in positive ion mode were as follows: spray voltage, 2.0 KV; capillary temperature, 320° C.; S-lens RF level, 55. […] The MS/MS spectra were analyzed using Sequest HT and MSPepSearch, both integrated in Proteome Discoverer 2.4.1.15 (Thermo Scientific, MA). […] Finally, the results were subjected to statistical analysis using percolator node where the False discovery rate (FDR) was calculated using a decoy database search and only high confidence peptide identifications with FDR 0.01 were included. […]

TLR4 = TLR4 (Homo sapiens, UniProt O00206); test: Immunoprecipitation with anti-GzmA, probed for TLR4; settings: human monocyte lysates, infected and uninfected cells
[5] = thawed aliquots tested up to a week after thawing

Chain of TLR4 (O00206 24-839): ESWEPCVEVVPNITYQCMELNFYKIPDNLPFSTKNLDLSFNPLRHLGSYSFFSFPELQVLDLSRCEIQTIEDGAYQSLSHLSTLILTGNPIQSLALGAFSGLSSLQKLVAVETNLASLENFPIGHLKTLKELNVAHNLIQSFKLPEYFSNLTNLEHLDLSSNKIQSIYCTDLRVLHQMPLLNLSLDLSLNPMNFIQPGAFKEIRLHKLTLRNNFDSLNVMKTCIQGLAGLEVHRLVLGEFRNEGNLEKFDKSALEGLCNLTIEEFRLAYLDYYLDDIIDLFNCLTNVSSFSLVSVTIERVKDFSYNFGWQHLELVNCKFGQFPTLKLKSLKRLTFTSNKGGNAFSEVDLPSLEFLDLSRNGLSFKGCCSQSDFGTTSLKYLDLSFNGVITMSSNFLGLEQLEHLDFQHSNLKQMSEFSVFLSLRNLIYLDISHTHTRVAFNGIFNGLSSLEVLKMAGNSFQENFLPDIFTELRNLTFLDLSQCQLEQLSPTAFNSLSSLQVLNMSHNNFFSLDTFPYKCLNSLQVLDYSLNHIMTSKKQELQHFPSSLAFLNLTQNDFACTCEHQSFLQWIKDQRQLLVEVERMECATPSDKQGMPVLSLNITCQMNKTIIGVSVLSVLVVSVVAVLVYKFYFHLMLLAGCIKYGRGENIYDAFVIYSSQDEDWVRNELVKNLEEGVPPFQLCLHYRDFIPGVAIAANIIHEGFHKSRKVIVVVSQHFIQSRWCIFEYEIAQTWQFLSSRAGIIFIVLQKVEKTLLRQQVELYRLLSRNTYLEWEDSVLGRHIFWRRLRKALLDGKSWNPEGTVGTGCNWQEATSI

B1: GzmA-WT: recombinant wild-type human Granzyme A, homodimeric serine protease, purified from HEK293T supernatants (protein)
chain: IIGGNEVTPHSRPYMVLLSLDRKTICAGALIAKDWVLTAAHCNLNKRSQVILGAHSITREEPTKQIMLVKKEFPYPCYDPATREGDLKLLQLMEKAKINKYVTILHLPKKGDDVKPGTMCQVAGWGRTHNSASWSDTLREVNITIIDRKVCNDRNHYNFNPVIGMNMVCAGSLRGGRDSCNGDSGSPLLCEGVFRGVTSFGLENKCGDPRGPGVYILLSKKHLNWIIMTIKGAV
modifications: left off: small tags and cut ends
notes: recombinant wild-type human Granzyme A, homodimeric serine protease, purified from HEK293T supernatants
inhibition of intracellular mycobacterial growth in TLR4-deficient iMac cells [1]: incapable of inhibiting intracellular mycobacterial growth | PDIA1 upregulation compared to control [2]: 90% | uptake and persistence of bacteria in treated cells with detectable GzmA ([3]; GzmA detected in treated monocytes): least uptake and persistence of bacteria | mycobacterial growth in treated cells without sufficient internalization of protein (GzmA-) ([3]; GzmA- cells, over 18 h): reduced mycobacterial growth over time | reduction in mycobacterial growth AUC ([3]; cells treated and staining positive for GzmA, over 18 h): 78% | inhibition of mycobacterial growth in iMac-WT cells [4]: modestly inhibit mycobacterial growth | Rab11-FIP1 protein level (Rab11-FIP1): upregulated | binding to TLR4 (immunoprecipitation) (TLR4): bound to GzmA-WT | stability at 4° C. (retention of substrate activity) [5]: continued to retain its activity
